Series [1] deals with T1, RIG-I CTD H847A (human, UniProt O95786 792-925, H847A).
T1 sequence: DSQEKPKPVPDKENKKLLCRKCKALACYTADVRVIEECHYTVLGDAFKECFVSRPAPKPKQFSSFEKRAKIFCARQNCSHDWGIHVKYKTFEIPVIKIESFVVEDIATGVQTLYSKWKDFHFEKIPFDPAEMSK
Briefly: EMSA. In general terms: Mobility shift assays separate free from complexed probe on a gel.

Series [2] concerns the target T2, RIG-I CTD H847A/K858A (human, UniProt O95786 792-925, H847A;K858A).
T2 sequence: T1 sequence with K67A
Briefly: ITC. (Isothermal titration calorimetry measures the heat released or taken up as one component is titrated into another.)

Series [3] has as its target T1, RIG-I CTD H847A. The experiment in a line: ITC.
For series [4], the target named is T3, RIG-I CTD (human, UniProt O95786 792-925).
T3 sequence: T1 sequence with A56H
The experiment in a line: ITC.

Series [5] addresses T3, RIG-I CTD. Briefly: ITC. This is another data set of the same source.

Changes are numbered by the printed parent chain. Like-named read-outs stand apart in the source and are kept apart here.

B1: 5'-ppp-dsRNA 12-mer, 32pCp-labelled (dsRNA)
RNA 1: GACGCUAGCGUC
RNA 2: GACGCUAGCGUC
modifications: 5'-triphosphate; labelled strand (ppp-11-mer S1 + pCp) carries an additional 3'-phosphate
Turning to B1, the binding signal in series [1] is approximately 10 fold weaker than WT.

B2: 5'-ppp-dsRNA 12-mer (dsRNA)
RNA 1: GACGCUAGCGUC
RNA 2: GACGCUAGCGUC
modifications: 5'-triphosphate on both strands
In the case of B2, the Kd (as a rule, a measure of binding affinity in units of concentration) worked out at 649 nM in series [2], 162 nM in series [3], 29.2 nM in series [4] and 215 nM in series [5].
